Measured values as given in publication doi:10.1101/484048.
Read-outs that look alike come from different tables or passages of the source.

Tests used:
[1] = target: human methylmalonyl-CoA epimerase p.Arg143Cys variant (human) (UniProt Q96PE7); test: crystal structure
[2] = target: human methylmalonyl-CoA epimerase, wild type (human) (UniProt Q96PE7); test: crystal structure
[3] = target: human methylmalonyl-CoA epimerase, wild type (human) (UniProt Q96PE7)

Substance | stoichiometry N [1] | stoichiometry N [2] | stoichiometry N [3]
human methylmalonyl-CoA epimerase p.Arg143Cys variant (from UniProt Q96PE7 45-176) (enzyme) | 2 | – | –
human methylmalonyl-CoA epimerase, wild type (from UniProt Q96PE7 45-176) (enzyme) | – | 2 | 2
